Test results: paper PMC7979870

Biological target: ALFA peptide and His8-tagged ZAC orthologue from Oryzias latipes (OlZAC) (Oryzias latipes)
Experiment: negative staining EM with 2D classification; purified OlZAC reconstituted into NAPol amphipol, stained with 2% uranyl acetate, Talos L120C at 120 kV, 2D classification in RELION 3.0

## ALFA peptide and His8-tagged ZAC orthologue from Oryzias latipes (OlZAC) (receptor)
  stoichiometry N: 5
